Where no end group is shown, it is not given here. [ ]: non-standard residue; d: D form. 5‑Cl‑benzothiazol‑2‑yl side chain = not defined here; 6‑Cl‑benzothiazol‑2‑yl side chain = not defined here; Phe(3-CF3) = N[C@@H](Cc1cccc(C(F)(F)F)c1)C(=O)O; Phe(3,5-F2) = N[C@@H](Cc1cc(F)cc(F)c1)C(=O)O; Phe(3-CN) = N#Cc1cccc(C[C@H](N)C(=O)O)c1; Phe(3-Cl) = N[C@@H](Cc1cccc(Cl)c1)C(=O)O; Phe(4-Cl) = N[C@@H](Cc1ccc(Cl)cc1)C(=O)O; Phe(2-Cl) = N[C@@H](Cc1ccccc1Cl)C(=O)O; 2Nal = N[C@@H](Cc1ccc2ccccc2c1)C(=O)O; Phe(2-F) = N[C@@H](Cc1ccccc1F)C(=O)O; hPhe = N[C@@H](CCc1ccccc1)C(=O)O
Biological target: human DCN1 (residues 58–259), N-terminal His6 tag (human, UniProt Q96GG9 58-259)
Test: FP

human DCN1 (residues 58–259), N-terminal His6 tag, sequence (Q96GG9 58-259): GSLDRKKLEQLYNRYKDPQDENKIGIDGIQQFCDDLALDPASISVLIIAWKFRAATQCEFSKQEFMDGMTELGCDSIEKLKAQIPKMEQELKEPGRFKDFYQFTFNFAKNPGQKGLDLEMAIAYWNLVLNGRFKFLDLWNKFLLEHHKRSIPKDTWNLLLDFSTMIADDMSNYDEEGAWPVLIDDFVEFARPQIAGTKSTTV

Row | Binder | Ki
1 | MIKLFSL [UBC12 seven-residue peptide (6)] | 28 µM
2 | [5‑Cl‑benzothiazol‑2‑yl side chain]IKL (not fully specified; reading uncertain) [compound 25 (24 with 5-Cl on the benzothiazol-2-yl)] | 2.5 µM
3 | YIKL [analog of 11 with p-OH substitution of the phenyl] | 386 µM
4 | MIK [UBC12 tripeptide (10)] | > 1000 µM
5 | [6‑Cl‑benzothiazol‑2‑yl side chain]IKL (not fully specified; reading uncertain) [compound 26 (24 with 6-Cl on the benzothiazol-2-yl)] | 0.034 µM
6 | FIKL [compound 11 (tetrapeptide 9 with Met1 replaced by phenylalanine)] | 41 µM
7 | [Phe(3-CN)]IKL [analog of 11 containing an m-CN substituted phenyl] | > 1000 µM
8 | MIKLFSLKQQK [UBC12 peptide 2 (peptide 1 without Lys12)] | 2.4 µM
9 | [Phe(3-Cl)]IKL [compound 14 (11 with Cl at the meta position of the phenyl ring)] | 45 µM
10 | MIKLFSLKQQ [UBC12 peptide 3] | 6 µM
11 | [2Nal]IKL [compound 23 (11 with the phenyl replaced by naphthalen-2-yl)] | 3.8 µM
12 | MIKLFSLK [UBC12 peptide 5] | 9.2 µM
13 | [hPhe]IKL [compound 12 (tetrapeptide 9 with Met1 replaced by homophenylalanine)] | 313 µM
14 | MIKLFSLKQ [UBC12 peptide 4] | 6.5 µM
15 | MIKLF [UBC12 peptide 8] | 111 µM
16 | [Phe(2-F)]IKL [analog of 11 with o-F substitution of the phenyl] | 125 µM
17 | [Phe(4-Cl)]IKL [compound 15 (11 with Cl at the para position of the phenyl ring)] | 71 µM
18 | [Phe(2-Cl)]IKL [compound 13 (11 with Cl at the ortho position of the phenyl ring)] | 143 µM
19 | [Phe(3,5-F2)]IKL [analog of 11 with 3,5-di-F substitution of the phenyl] | 82 µM
20 | MIKLFS [UBC12 peptide 7] | 83 µM
21 | [Phe(3-CF3)]IKL [analog of 11 containing an m-CF3 substituted phenyl] | > 1000 µM

— paper PMC5658359 (2017)
